± gives the uncertainty stated by the source.

First the molecules themselves.
B1: Protein S100-G, residues 1 to 79; numbered along this chain, P02633 (parent)
chain: MSAKKSPEELKGIFEKYAAKEGDPNQLSKEELKLLLQTEFPSLLKGPSTLDELFEELDKNGDGEVSFEEFQVLVKKISQ

The variants in this data set derive from B1. Briefly: abundance fitness (aPCA) (normalised: wild type 0, dead -1); higher = more abundant; growth selection in yeast, the domain comes from the species named. The following applies: Bos taurus.
Consider S42K, for which the abundance fitness turned out to be 0.061 ± 0.081. For S42D, the abundance fitness is -0.046 ± 0.086. Next, A3V: 0.129 ± 0.073; L50Q: -0.028 ± 0.072. To L50I belongs 0.009 ± 0.077. L50E: the abundance fitness was found to be 0.007 ± 0.076.

Turning to K20M, the abundance fitness came out at 0.053 ± 0.081. Next, K20N: -0.012 ± 0.079.

For K20G, the abundance fitness was -0.01 ± 0.076. K20S: the abundance fitness was -0.088 ± 0.065. Next, E8P: -0.163 ± 0.074; E8T: -0.046 ± 0.075; K29Y: 0.12 ± 0.086.

As to K29G, the abundance fitness is -0.078 ± 0.073. Next, K29L: -0.008 ± 0.064. As for K29F, the abundance fitness stood at 0.017 ± 0.087. To K29V belongs 0.038 ± 0.07; to K29T, 0.007 ± 0.079; to K29N, 0.07 ± 0.091.

K29D: the abundance fitness was -0.007 ± 0.096. As to A18I, the abundance fitness was -0.248 ± 0.085. A18D: the abundance fitness is -0.846 ± 0.09. On to A18K, for which the abundance fitness is -0.224 ± 0.085. Next, A18L: -0.242 ± 0.064; G12M: -0.002 ± 0.073; G12N: 0.001 ± 0.096. To G12W belongs -0.082 ± 0.087; to G12Y, -0.045 ± 0.094.

With G12K, the abundance fitness was determined as 0.029 ± 0.083. For F40M, the abundance fitness stood at 0.047 ± 0.081. Next, F40N: -0.084 ± 0.077; Y17W: -0.017 ± 0.082. Next, Y17G: -0.521 ± 0.073; Y17C: -0.295 ± 0.081.

In the case of Y17P, the abundance fitness is -1.25 ± 0.086. For the variant K75D, the abundance fitness is -0.063 ± 0.098. Next, K75M: -0.098 ± 0.079.

With K75G, the abundance fitness was -0.022 ± 0.082. As to S2M, the abundance fitness amounted to 0.279 ± 0.12. S2P: the abundance fitness was -0.699 ± 0.08. To S2T belongs 0.102 ± 0.076; to S2G, 0.039 ± 0.086. On to L35P, for which the abundance fitness was -2.06 ± 0.096. For the variant L35I, the abundance fitness is 0.016 ± 0.075. L35N: the abundance fitness is -1.04 ± 0.081.

Regarding L35H, the abundance fitness is -0.724 ± 0.074. Next, L36C: -0.099 ± 0.093.

On to L36T, for which the abundance fitness was -0.203 ± 0.065. On to L36K, for which the abundance fitness was -1.98 ± 0.11. To L36Q belongs -0.789 ± 0.09; to S28C, -0.07 ± 0.088. On to S28P, for which the abundance fitness was -0.033 ± 0.078. For the variant S28H, the abundance fitness was -0.041 ± 0.081. Next, F70Y: -0.039 ± 0.076; F70A: -0.157 ± 0.072; F70M: -0.105 ± 0.084.

On to F70P, for which the abundance fitness was -0.94 ± 0.077. To V72E belongs -0.092 ± 0.1. Next, V72F: -0.032 ± 0.082.

T38N: the abundance fitness is -0.056 ± 0.085. With T38L, the abundance fitness was -0.073 ± 0.061.

Take T38I: the abundance fitness was -0.004 ± 0.081. To F14L belongs -0.73 ± 0.062; to F14I, -0.504 ± 0.086; to F14Q, -1.29 ± 0.086. For the variant G61T, the abundance fitness stood at 0.006 ± 0.071.

Regarding G61C, the abundance fitness came out at 0.026 ± 0.08. Next, G61L: -0.063 ± 0.064. Next, G61F: -0.006 ± 0.089; G61E: 0.067 ± 0.1; G61P: 0.007 ± 0.079. For G61K, the abundance fitness is -0.05 ± 0.085. Next, E39S: -0.308 ± 0.065; E39T: -0.218 ± 0.069.

For E39Q, the abundance fitness is -0.21 ± 0.089. Regarding E39N, the abundance fitness is -0.138 ± 0.077. Turning to E39M, the abundance fitness is -0.177 ± 0.087. Next, E39Y: -0.197 ± 0.075; E39W: -0.349 ± 0.1. Take E30G: the abundance fitness is -0.057 ± 0.082.

For E30H, the abundance fitness is -0.026 ± 0.077. For E30I, the abundance fitness was -0.032 ± 0.085.

For the variant E30S, the abundance fitness came to 0.048 ± 0.062. Regarding S66W, the abundance fitness was -0.382 ± 0.088. Next, S66C: 0.053 ± 0.086. Take S66N: the abundance fitness was 0.014 ± 0.078. Next, S66R: -0.036 ± 0.063; S66Q: -0.101 ± 0.083; L73Q: -0.28 ± 0.082. In the case of L73V, the abundance fitness is -0.017 ± 0.073. Take I77V: the abundance fitness was -0.158 ± 0.077. Next, I77E: -0.142 ± 0.1; I77N: -0.025 ± 0.084; I77K: -0.148 ± 0.083.

Take L53T: the abundance fitness was found to be 0.036 ± 0.068. As to L53W, the abundance fitness was 0.013 ± 0.073. L53C: the abundance fitness is -0.048 ± 0.08. Next, L53D: 0.053 ± 0.094; L53H: 0.026 ± 0.075. Consider L53G, for which the abundance fitness was -0.065 ± 0.069. In the case of L10N, the abundance fitness was -0.31 ± 0.09. Next, L10T: -0.174 ± 0.072.

For L10M, the abundance fitness was 0.044 ± 0.085. To L10F belongs -0.048 ± 0.075. To L10S belongs -0.221 ± 0.065; to L57M, 0.054 ± 0.09; to L57S, 0.013 ± 0.069.

Take L57W: the abundance fitness amounted to 0.032 ± 0.089. With L57Y, the abundance fitness came to 0.03 ± 0.088. For the variant L57R, the abundance fitness was -0.015 ± 0.071.

With L57C, the abundance fitness was 0.024 ± 0.095.

Q26R: the abundance fitness was 0.054 ± 0.068. For Q26F, the abundance fitness was -0.043 ± 0.088. With Q26E, the abundance fitness turned out to be 0.012 ± 0.09.

In the case of Q26G, the abundance fitness is -0.031 ± 0.07. To Q26V belongs -0.081 ± 0.071; to Q26M, 0.002 ± 0.083; to Q26A, -0.062 ± 0.07. With L43N, the abundance fitness was -0.094 ± 0.082. Next, L43H: -0.034 ± 0.081; L43R: -0.077 ± 0.066; L43F: -0.02 ± 0.081. To L43A belongs 0.013 ± 0.068; to F54S, 0.023 ± 0.062; to F54A, -0.007 ± 0.068. To F54W belongs 0.04 ± 0.078; to F54M, 0.007 ± 0.076; to T49Q, 0.04 ± 0.072. As to T49G, the abundance fitness was -0.043 ± 0.087. To T49M belongs -0.081 ± 0.07; to T49K, -0.103 ± 0.068.

Turning to T49C, the abundance fitness was -0.12 ± 0.091.

For S78F, the abundance fitness is -0.25 ± 0.27. Next, S78A: 0.245 ± 0.41; E52K: 0.022 ± 0.077; E52P: -0.037 ± 0.071. Turning to E52L, the abundance fitness was -0.001 ± 0.063.

For the variant E52A, the abundance fitness was -0.005 ± 0.066. With E52N, the abundance fitness was -0.002 ± 0.08. Next, E52V: -0.024 ± 0.064; E52W: -0.084 ± 0.08.

In the case of D62L, the abundance fitness is -0.042 ± 0.059. With D62H, the abundance fitness is -0.045 ± 0.069. In the case of D62T, the abundance fitness is -0.044 ± 0.067.

For the variant D62I, the abundance fitness was -0.097 ± 0.076. Turning to N60F, the abundance fitness is -0.156 ± 0.092. Next, N60S: 0.04 ± 0.068; N60H: -0.05 ± 0.088; E31D: 0.054 ± 0.11. To E31F belongs -0.123 ± 0.091. As to E31P, the abundance fitness is -0.022 ± 0.095. Turning to E31T, the abundance fitness was -0.175 ± 0.086. Next, E31H: -0.016 ± 0.086; E31S: 0.002 ± 0.074; K59W: 0.065 ± 0.085. With K59S, the abundance fitness worked out at 0.009 ± 0.061. With K59N, the abundance fitness came to 0.009 ± 0.08. On to P24G, for which the abundance fitness was -0.031 ± 0.069. Next, P24Q: 0.019 ± 0.089; P24W: -0.219 ± 0.084.

V74T: the abundance fitness was 0.024 ± 0.063. Take V74R: the abundance fitness was -0.245 ± 0.061. Next, V74K: 0.041 ± 0.078; K5V: -0.126 ± 0.067. In the case of K5N, the abundance fitness is -0.063 ± 0.076. Turning to K5S, the abundance fitness is -0.03 ± 0.06.

On to K5I, for which the abundance fitness stood at 0.045 ± 0.075.

The values above are taken from the Human Domainome abundance scans (Beltran et al. 2025).
